# Source: patent US20180094044A1
# Key:
# [1] = target: CD19 CAR with CD34 spacer #C2 (human); experiment: MACS selection of transduced Jurkat cells with bead-labelled antibody, flow cytometry of fractions
# [2] = target: CD19 CAR with CD34 spacer #C4 (human); experiment: as above
# [3] = target: CD19 CAR with CD34 spacer #C5 (human); experiment: as above
# [4] = target: CD19 CAR with CD34 spacer #C7 (human); experiment: as above
# [5] = target: CD19 CAR with CD34 spacer #C3 (human); experiment: as above
# Chain of CD19 CAR with CD34 spacer #C3 (human) (P28906 42-90): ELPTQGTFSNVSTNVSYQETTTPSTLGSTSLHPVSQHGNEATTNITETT
# CD19 = CD19 (UniProt P15391); experiment: cell-based or functional assay
# Chain of UniProt P15391 (P15391 20-556 limits assumed): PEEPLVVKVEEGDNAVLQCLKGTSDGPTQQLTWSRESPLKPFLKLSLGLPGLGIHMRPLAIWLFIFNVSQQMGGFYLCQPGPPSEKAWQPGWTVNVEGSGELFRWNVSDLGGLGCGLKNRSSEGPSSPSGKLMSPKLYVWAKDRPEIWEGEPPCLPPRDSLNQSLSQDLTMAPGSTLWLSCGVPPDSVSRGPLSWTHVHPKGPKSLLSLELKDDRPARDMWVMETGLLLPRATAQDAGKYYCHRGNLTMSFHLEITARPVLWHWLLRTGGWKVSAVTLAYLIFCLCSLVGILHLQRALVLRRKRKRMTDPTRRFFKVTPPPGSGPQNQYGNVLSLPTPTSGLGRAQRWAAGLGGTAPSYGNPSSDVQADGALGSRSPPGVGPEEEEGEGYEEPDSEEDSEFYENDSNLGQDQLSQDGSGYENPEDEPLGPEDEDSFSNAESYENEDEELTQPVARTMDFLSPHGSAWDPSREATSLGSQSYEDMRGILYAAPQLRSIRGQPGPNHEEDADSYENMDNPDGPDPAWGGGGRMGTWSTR
# [6] = target: CD19 CAR with NGFR/CD271 spacer #N3; experiment: MACS selection of transduced Jurkat cells with bead-labelled antibody, flow cytometry of fractions
# Chain of CD19 CAR with NGFR/CD271 spacer #N3 (P08138 108-227): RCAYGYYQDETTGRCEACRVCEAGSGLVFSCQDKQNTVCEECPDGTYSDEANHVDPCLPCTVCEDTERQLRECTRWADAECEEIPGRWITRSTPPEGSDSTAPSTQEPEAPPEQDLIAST
# [7] = target: CD19 CAR with NGFR/CD271 spacer #N4; experiment: as above
# Chain of CD19 CAR with NGFR/CD271 spacer #N4 (P08138 66-227): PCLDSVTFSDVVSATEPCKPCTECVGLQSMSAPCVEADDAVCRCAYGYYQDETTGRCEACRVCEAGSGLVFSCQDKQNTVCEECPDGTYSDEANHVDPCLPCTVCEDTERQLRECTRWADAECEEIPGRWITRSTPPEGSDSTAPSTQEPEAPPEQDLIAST
# Chain of CD19 CAR with CD34 spacer #C7 (human) (P28906 42-220): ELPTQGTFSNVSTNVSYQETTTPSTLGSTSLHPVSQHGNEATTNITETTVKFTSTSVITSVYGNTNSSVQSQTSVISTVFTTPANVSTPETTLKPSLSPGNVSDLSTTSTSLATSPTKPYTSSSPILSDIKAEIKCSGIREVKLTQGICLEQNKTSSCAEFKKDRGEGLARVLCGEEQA
# Chain of CD19 CAR with CD34 spacer #C5 (human) (P28906 42-110): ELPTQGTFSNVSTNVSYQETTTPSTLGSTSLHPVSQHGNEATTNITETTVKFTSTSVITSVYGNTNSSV
# Chain of CD19 CAR with CD34 spacer #C4 (human) (P28906 32-90): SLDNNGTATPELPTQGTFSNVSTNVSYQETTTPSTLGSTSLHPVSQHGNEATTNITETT
# Chain of CD19 CAR with CD34 spacer #C2 (human) (P28906 32-63): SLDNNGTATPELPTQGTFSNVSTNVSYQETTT
substance,measurement,setting,value
CD34 monoclonal antibody QBend10,percent positive cells before MACS,[1],68.7%
same,percent positive cells in flow through,[1],68.1%
same,percent positive cells before MACS,[2],64.3%
same,percent positive cells in flow through,[2],47%
same,percent positive cells before MACS,[3],65.5%
same,percent positive cells in flow through,[3],41.1%
same,percent positive cells before MACS,[4],78.4%
same,percent positive cells in flow through,[4],67.1%
same,percent positive cells before MACS,[5],61.6%
same,percent positive cells in flow through,[5],47.6%
CD19 CAR with the IgG4 CH2CH3 as spacer domain (from UniProt P01861 99-327),killing of REH cells at 0.1:1 effector to target cell ratio,CD19,48.9%
CD271 monoclonal antibody ME20.4,percent positive cells before MACS,[6],60.1%
same,percent positive cells in flow through,[6],57.2%
same,percent positive cells before MACS,[7],51.4%
same,percent positive cells in flow through,[7],49.7%
